The values that follow come from US20040096898A1 (MCMASTER UNIVERSITY, published 2004).

Ends that are not written are not given here.

This test addresses T1, PMCA398 (WVQKRPWLAESTPIYIQYFVKC) (conjugated through the terminus cysteine to keyhole limpet hemocyanin or ovalbumin).
T1 construct: Used as the KHLH conjugate (coated), as the free peptide (coated) and as the ovalbumin conjugate (eluting)
T1 peptide: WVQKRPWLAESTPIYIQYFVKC
Put plainly: phage display panning on coated peptide conjugate. The text has this:
The peptide fragment from the PMCA protein is preferably from an extracellular domain of the PMCA protein. […] The inventors screened an MEK13 random peptide phage display library (New England Biolabs, USA) and identified a phage that bound to the PMCA398-keyhole limpet hemocyanin conjugate and eluted with the PMCA398-ovalbumin. Specific details on the screening assay are provided in Example 1. A peptide containing the 12 amino add recognition sequence and a spacer ([…]-amide, SEQ.ID.NO.1) was synthesized and subsequently termed caloxin 2A1.
1.4.4. Screening Procedure for PMCA398: The peptide PMCA398 is extremely hydrophobic. Therefore, it was conjugated at a lower (5:1 molar) ratio to KHLH and ovalbumin. The peptide and its conjugates could be used only at low concentrations as very fine suspensions. […] Therefore, a strategy of sequentially increasing selectivity was used. First three rounds of panning were conducted at low stringency. […] The selected phage were pooled. […] After three high stringency washes, a differential time elution was performed—at each time point replacing the elutant with new PBS. The idea was that the most tightly bound phage would elute last. The elution was at room temperature for 1, 2, 4, 8, 16 and then 120 min. The phage from 16 and 120 min elutants gave excellent results in selectivity assays. […]

B1: phage displaying the 12 amino acid peptide VSNSNWPSFPSS (peptide)
peptide: VSNSNWPSFPSS
modifications: also: displayed as a fusion on M13KE phage
notes: also called phage from 16 and 120 min elutants; consensus clone of the PMCA398 screen; not shown: rest of the M13KE phage display fusion (PhD12 library); not described
In the case of B1, the binding result is on record as “binds”.
